From publication PMC10164562

Legend:
[1] = target: BrxL(E280Q) (Acinetobacter sp. 394); test: cryo-EM structure; BrxL(E280Q), high molecular weight SEC fractions with co-purified host DNA, no added ATP; C1 refinement
[2] = target: wild-type BrxL (Acinetobacter sp. 394); test: cryo-EM structure; wild-type BrxL, high molecular weight SEC fractions, ~0.8 mg/ml, no added ATP, no bound DNA; C7 symmetry

Substance | stoichiometry N [1] | stoichiometry N [2]
BrxL(E280Q) (natural protein) | 12 | –
wild-type BrxL (natural protein) | – | 14
